Key:
[1] = biological target: T1, TGFβR2.B3.F8 I-OnuI HE variant (HEK 293T expression) (Artificial Sequence (parent Ophiostoma …)); assay: cell_activity; rate of generating iRFP-positive cells; chromosomal reporter in HEK 293T
T1 chain: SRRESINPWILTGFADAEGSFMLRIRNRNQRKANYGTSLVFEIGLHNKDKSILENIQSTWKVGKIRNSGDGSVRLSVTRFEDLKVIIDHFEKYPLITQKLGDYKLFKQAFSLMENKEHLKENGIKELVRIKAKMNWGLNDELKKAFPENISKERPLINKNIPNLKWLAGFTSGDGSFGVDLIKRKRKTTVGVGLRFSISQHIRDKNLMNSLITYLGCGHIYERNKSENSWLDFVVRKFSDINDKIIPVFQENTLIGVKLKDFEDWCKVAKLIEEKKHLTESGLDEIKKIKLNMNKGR
Protocol: The activity of reprogrammed I-OnuI HEs that target exon 6 of the TGFβR2 gene was measured using a chromosomally integrated fluorescent reporter system (Certo et. al., 2011). Fully reprogrammed I-OnuI HEs that bind and cleave the TGFβR2 target sequence (SEQ ID NO: 11) were cloned into mammalian expression plasmids and then individually transfected into a HEK 293T […] cell line that contained the TGFβR2 target sequence upstream of an out-of-frame gene encoding the fluorescent iRFP protein. Cleavage of the embedded target site by the HE and the accumulation of indels following DNA repair via the non-homologous end joining (NHEJ) pathway results in approximately one out of three repaired loci placing the fluorescent reporter gene back “in-frame”. The percentage of iRFP fluorescing HEK 293T cells is therefore used a readout of endonuclease activity at the chromosomally embedded target sequence. […] FIG. 3 (top graph).
A secondary I-OnuI variant library was next generated by performing random mutagenesis on the TGFβR2.B3 HE variant (e.g., SEQ ID NO: 6). Display-based flow sorting was performed under more stringent cleavage conditions in an effort to isolate variants with improved catalytic efficiency. […] FIG. 3 (bottom graph).

[2] = biological target: T2, TGFβR2.B3.F8 I-OnuI HE variant (yeast surface display) (Artificial Sequence (parent Ophiostoma …)); assay: flow; sub-nanomolar affinity stated; yeast surface affinity titration, exact value only in figure; settings: tags: yeast surface display
T2 chain: T1 chain

B1: TGFβR2 exon 6 I-OnuI HE variant target site (dsDNA)
DNA 1: CGACCAGAAATTCCCAGCTTCT
DNA 2: AGAAGCTGGGAATTTCTGGTCG
**Q.** B1 was tested. Which activity [1] did it give?
**A.** The activity was roughly 4 fold vs TGFβR2.B3.

**Q.** What about the Kd [2] of the same binder?
**A.** Its Kd is less than 1 nM.

Source: patent publication US20200123515, “TGFBetaR2 ENDONUCLEASE VARIANTS, COMPOSITIONS, AND METHODS OF USE” (bluebird bio, Inc., published 2020)
